In PMC3536697:
Where “and” joins values, the source holds several entries; their conditions need not be identical. Identical values can stand only once.

Legend:
[1] = test system: CaStn1N;CaTen1 (Candida albicans;Candida albicans); test: UV crosslinking; conditions: reference; normalized to Ten1 adduct; single Iodo-dU; EMSA: 10 mM Tris-HCl pH 8.0, 2 mM MgCl2, 1 mM spermidine, 1 mM DTT, 10% glycerol, 22 C; UV crosslinking: 50 mM Hepes-NaOH pH 7.5, 10% glycerol, 30 mM …
[2] = test system: CaStn1N K98E/K170E;CaTen1 (Candida albicans;Candida albicans); test: UV crosslinking; conditions: single Iodo-dU; EMSA: 10 mM Tris-HCl pH 8.0, 2 mM MgCl2, 1 mM spermidine, 1 mM DTT, 10% glycerol, 22 C; UV crosslinking: 50 mM Hepes-NaOH pH 7.5, 10% glycerol, 30 mM …
[3] = molecular target: Cdc13 (CST subunit);Stn1;Ten1 (Candida glabrata;Candida glabrata;Candida glabrata) (UniProt Q6FM89); test: competition; conditions: labeled CgTELX1 7.5 nM, CST 10 nM; EMSA: 10 mM Tris-HCl pH 8.0, 2 mM MgCl2, 1 mM spermidine, 1 mM DTT, 10% glycerol, 22 C; UV crosslinking: 50 mM Hepes-NaOH pH 7.5, 10% glycerol, 30 mM …
[4] = test system: Cdc13 (Candida glabrata); test: competition; conditions: labeled CgTELX1 7.5 nM, Cdc13 6 nM; EMSA: 10 mM Tris-HCl pH 8.0, 2 mM MgCl2, 1 mM spermidine, 1 mM DTT, 10% glycerol, 22 C; UV crosslinking: 50 mM Hepes-NaOH pH 7.5, 10% glycerol, 30 mM …
[5] = molecular target: SUMO-CgCdc13-FLAG fusion protein (Candida glabrata Cdc13) (Candida glabrata); test: Coomassie staining intensities of the subunits in SDS-PAGE against BSA standards; purified CST complex (M2 fractions); intensities assumed proportional to molecular weights
[6] = molecular target: SUMO-CgCdc13-FLAG fusion protein (Candida glabrata Cdc13) (Candida glabrata); test: Western analysis of serial dilutions with anti-SUMO antibodies; serial three fold dilutions of the purified CST complex; SUMO tag present in both the Cdc13 and Stn1 fusions
[7] = molecular target: SUMO-CgCdc13-FLAG fusion protein (Candida glabrata Cdc13) (Candida glabrata); test: co-IP; extract of E. coli co-expressing SUMO-Cdc13-FG and HIS6-SUMO-Stn1 (CS) on M2 (anti-FLAG) resin; Coomassie and Western (anti-FLAG, anti-HIS6)
[8] = molecular target: SUMO-CgCdc13-FLAG fusion protein (Candida glabrata Cdc13) (Candida glabrata); test: co-sedimentation; purified CST complex on a 15-30% glycerol gradient; fractions by Western with anti-SUMO (Cdc13, Stn1) and anti-GST (Ten1); 500 kDa fraction also in serial two fold dilutions with anti-SUMO

What does the source list for C. albicans telomere IdU oligo?
binding signal (fraction of WT Stn1N crosslinking) [1]: 1; binding signal (fold reduction vs WT) [2]: 3

For “CGGTGTAAGGATGCACTTGAAACTCGGTGTAAGGATGCACTTGAAACT [LeTELX2]”, which binding signal (fold more competitor than CgTELX1) [3] is on record?
Its binding signal (fold more competitor than CgTELX1) is greater than 200.

And the binding signal (fold more competitor than CgTELX1) [4]?
The binding signal (fold more competitor than CgTELX1) was greater than 200.

With “HIS6-SUMO-CgStn1 fusion protein (Candida glabrata Stn1) (natural protein)” as the substance, how does the stoichiometry N (Stn1 per Cdc13) [5] read?
The stoichiometry N (Stn1 per Cdc13) was 2 and 3 and 2.5.

What about the stoichiometry N (Stn1 per Cdc13) [6] of the same substance?
Its stoichiometry N (Stn1 per Cdc13) is 2.5.

What about the stoichiometry N (Stn1 per Cdc13) [7] of the same substance?
The stoichiometry N (Stn1 per Cdc13) was 2 to 3.

And the stoichiometry N (Stn1 per Cdc13) [8]?
The stoichiometry N (Stn1 per Cdc13) was 2.5.

With “SUMO-CgCdc13-FLAG fusion protein (Candida glabrata Cdc13) (natural protein)” as the substance, how does the stoichiometry N [8] read?
Its stoichiometry N is 2.

For “TCTTTAGGGAGGTACTGATGTTCTTTAGGGAGGTACTGATGT [ClTELX2]”, which binding signal (fold more competitor than CgTELX1) [3] is on record?
The binding signal (fold more competitor than CgTELX1) was 20.

And the binding signal (fold more competitor than CgTELX1) [4]?
The binding signal (fold more competitor than CgTELX1) was 20.

For “TTAGGATCCATGAAAACTGAAGAAGGTAAACTGGTA [R1]”, which binding signal (fold more competitor than CgTELX1) [3] is on record?
Its binding signal (fold more competitor than CgTELX1) is greater than 200.

And the binding signal (fold more competitor than CgTELX1) [4]?
The binding signal (fold more competitor than CgTELX1) was greater than 200.
